Data set [1] can be described thus: Thermal stability assessment by nanoDSC. Particulars: 1 mg/mL in PBS, scan 25-100° C. at 1° C./min; for TM: major transition. Type of data set: physicochemical. In outline: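 CTGF-specific lipocalin muteins at 1 mg/mL in PBS scanned from 25 to 100° C at 1° C/min by capillary nano-DSC. Where several transitions occur, the Tm of the major unfolding event is reported, along with onset temperature. Some muteins were expressed in E. coli, others in CHO cells.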

Data set [2] deals with T1, human CTGF (Homo sapiens, UniProt P29279).
T1 construct: purchased Creative Biomart
As to the kind of experiment: SPR binding kinetics and affinity, human CTGF. Particulars: 25° C., 1:1 binding model. Here is the method: (§1) Surface plasmon resonance (SPR) was used to measure binding kinetics and affinity of the representative lipocalin muteins disclosed herein.
(§2) The binding of exemplary lipocalin muteins to human (Creative Biomart), cynomolgus, rat (R&D Systems) and mouse CTGF (Abbexa) was determined by SPR using a Biacore instrument (Cytiva, formerly GE Healthcare). Some targets were fused to a human IgG1 Fc tag, and captured via the anti-human IgG antibody kit, others were directly immobilized.
(§3) For some measurements, human CTGF with a human IgG1 Fc Tag or rat or murine CTGF without a tag were directly immobilized to a CM5 Chip. The carboxyl groups on the chip were activated using 1-ethyl-3-(3-dimethylaminopropyl)-carbodiimide (EDC) and N-hydroxysuccinimide (NHS). Subsequently, the targets at a concentration of 3-5 μg/mL in 10 mM sodium acetate (pH) 4.5 were applied at a flow rate of 10 μL/min until an immobilization level of 300-1100 resonance units was achieved. Residual non-reacted NHS-esters were blocked by passing a solution of 1 M ethanolamine across the surface. The reference channel was activated/deactivated. For the capture setting, targets with an IgG Fc Tag at 0.25-2.5 μg/mL in HBS-EP+ buffer were captured by the anti-human IgG-Fc antibody at the chip surface for 180 s at a flow rate of 10 μL/min.
(§4) The binding assay was carried out with a contact time of 180 s, a dissociation time of 900-3600 s and a flow rate of 30 μL/min. All measurements were performed at 25° C. […] For the directly immobilized targets, the same regeneration conditions were used. Prior to the protein measurements, three startup cycles were performed for conditioning purposes. Data were evaluated with Biacore Evaluation software. Double referencing was used and the 1:1 binding model was used to fit the raw data.

The target of data set [3] is T2, human CTGF (Homo sapiens, UniProt P29279, H83D).
T2 construct: purchased Creative Biomart
The data set is described as follows: SPR binding kinetics and affinity, human CTGF. Particulars: 25° C., 1:1 binding model. Here is the method:
as §1, §2, §3, §4

Data set [4] concerns the target T3, Murine CTGF (Mus musculus, UniProt P29268).
T3 construct: purchased Abbexa
T3 sequence (P29268 26-348): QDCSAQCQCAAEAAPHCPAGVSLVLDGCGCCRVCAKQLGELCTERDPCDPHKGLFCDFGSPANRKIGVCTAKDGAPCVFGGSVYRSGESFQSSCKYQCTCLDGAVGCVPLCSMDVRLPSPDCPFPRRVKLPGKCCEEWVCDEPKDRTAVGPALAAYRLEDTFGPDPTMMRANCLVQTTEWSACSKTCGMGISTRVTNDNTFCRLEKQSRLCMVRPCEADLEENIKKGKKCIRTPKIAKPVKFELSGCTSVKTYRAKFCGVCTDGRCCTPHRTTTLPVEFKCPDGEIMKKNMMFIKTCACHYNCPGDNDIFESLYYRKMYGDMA
The data set is described as follows: SPR binding kinetics and affinity, murine CTGF. Further details: key to Murine CTGF kon / Murine CTGF koff / Murine CTGF KD: B binding without determination of kinetics constants. Particulars: 25° C., 1:1 binding model. The procedure:
as §1, §2, §3, §4
(§5) The values determined for kon, koff and the resulting equilibrium dissociation constant (KD) for exemplary lipocalin muteins are summarized in Table 4.

The target of data set [5] is T4, Rat CTGF (Rattus norvegicus, UniProt Q9R1E9).
T4 construct: purchased R&D Systems
T4 sequence (Q9R1E9 25-347): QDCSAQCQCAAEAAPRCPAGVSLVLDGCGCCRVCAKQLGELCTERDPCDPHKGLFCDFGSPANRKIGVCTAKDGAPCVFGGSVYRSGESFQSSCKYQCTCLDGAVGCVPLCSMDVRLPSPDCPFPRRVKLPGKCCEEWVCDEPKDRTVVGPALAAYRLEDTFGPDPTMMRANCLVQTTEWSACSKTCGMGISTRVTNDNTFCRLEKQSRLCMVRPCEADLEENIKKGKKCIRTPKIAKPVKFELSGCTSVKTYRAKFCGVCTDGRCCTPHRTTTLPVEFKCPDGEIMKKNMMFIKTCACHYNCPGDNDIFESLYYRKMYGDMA
As to the kind of experiment: SPR binding kinetics and affinity, rat CTGF. Particulars: 25° C., 1:1 binding model. The procedure: as §1, §2, §3, §4, §5

We go through eight molecules from US20240228562A1, “NOVEL LIPOCALIN MUTEINS SPECIFIC FOR CONNECTIVE TISSUE GROWTH FACTOR (CTGF)” (PIERIS PHARMACEUTICALS GMBH, priority 2021, published 2024).

T1 sequence (P29279 with tags, fused parts or gaps H83D): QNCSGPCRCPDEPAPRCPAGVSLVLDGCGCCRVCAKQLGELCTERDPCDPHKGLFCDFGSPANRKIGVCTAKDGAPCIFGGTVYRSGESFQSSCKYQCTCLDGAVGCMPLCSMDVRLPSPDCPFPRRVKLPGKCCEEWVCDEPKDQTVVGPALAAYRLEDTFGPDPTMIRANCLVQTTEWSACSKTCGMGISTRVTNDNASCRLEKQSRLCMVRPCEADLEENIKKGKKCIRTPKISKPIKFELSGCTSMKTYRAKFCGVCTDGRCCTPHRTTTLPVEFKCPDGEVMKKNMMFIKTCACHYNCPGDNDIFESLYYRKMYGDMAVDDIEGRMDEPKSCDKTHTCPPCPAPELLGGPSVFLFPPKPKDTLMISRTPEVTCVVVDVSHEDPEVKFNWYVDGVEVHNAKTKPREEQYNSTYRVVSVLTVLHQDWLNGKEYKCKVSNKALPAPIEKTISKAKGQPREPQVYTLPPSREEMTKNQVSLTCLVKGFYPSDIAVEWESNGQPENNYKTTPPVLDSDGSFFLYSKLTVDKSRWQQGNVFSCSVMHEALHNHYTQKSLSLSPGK
T2 sequence (P29279 with tags, fused parts or gaps H83D): as above

B1: SEQ ID NO: 32: optimized CTGF-binding hNGAL lipocalin mutein (protein)
chain: QDSTSDLIPAPPLSKVPLQQNFQDNQFQGKWYVVGWAGNVKLREDKQPFKMSATIYELKEDKSYDVTEVVFEQKKCHYIIKTFVPGSQPGEFTLSPISSSPGLVSHLVRVVSTNYNQHAMVFFKKVHQNREFFWITLYGRTKELTSELKENFIRFSKSLGLPENHIVFPVPIDQCIDG
modifications: lipocalin mutein
With B1, in data set [1], the “ONSET MELTING” value was found to be 62 °C and the TM was found to be 79 °C. Further, in data set [2], the “human CTGF koff” value came out at 6.39e-05 s⁻¹. Besides, in data set [3], the “human CTGF kon” value turned out to be 109000 M⁻¹ s⁻¹. For the same molecule, in data set [4], the “Murine CTGF koff” value was 0.000264 s⁻¹ and the “Murine CTGF kon” value is 133000 M⁻¹ s⁻¹.

B2: SEQ ID NO: 35: optimized CTGF-binding hNGAL lipocalin mutein (protein)
chain: QDSTSDLIPAPPLSKVPLQQNFQDNQFQGKWYVVGWAGNVKLREDKQPLKMSATIYELKEDKSYDVTEVVFEQKKCHYIIKTFVPGSQPGEFTAGDIKSPPGYTSSLVRVVSTNYNQHAMVFFKKVSQNREFFWITLYGRTKELTSELKENFIRFSKSLGLPENHIVFPVPIDQCIDG
modifications: lipocalin mutein
In the case of B2, in data set [1], the “ONSET MELTING” value was 63 °C and the TM came out at 78 °C. Moreover, in data set [2], the “human CTGF koff” value came to 5.94e-05 s⁻¹. Also, in data set [3], the “human CTGF kon” value was 108000 M⁻¹ s⁻¹. In data set [4], the “Murine CTGF koff” value came to 0.000287 s⁻¹ and the “Murine CTGF kon” value was 128000 M⁻¹ s⁻¹. Besides, in data set [5], the “Rat CTGF koff” value turned out to be 0.000273 s⁻¹ and the “Rat CTGF kon” value is 193000 M⁻¹ s⁻¹.

B3: SEQ ID NO: 28: optimized CTGF-binding hNGAL lipocalin mutein (protein)
chain: QDSTSDLIPAPPLSKVPLQQNFQDNQFQGKWYVVGLAGNYRLREDKDPSKMGATIYELKEDKSYDVTQVQFDDKKCLYVIETFVPGSQPGEFTLGAIKSYPGLTSQLVRVVSTNYNQHAMVFVKKVWPNLEYFQIVLYGRTKELTSELKENFIRFSKSLGLPENHIVFPVPIDQCIDG
modifications: lipocalin mutein
Take B3: in data set [1], the “ONSET MELTING” value is 55 °C and the TM stood at 65 °C. The “human CTGF koff” value in data set [2] was 2.61e-05 s⁻¹. Besides, the “human CTGF kon” value in data set [3] was found to be 50400 M⁻¹ s⁻¹. In data set [4], the “Murine CTGF koff” value stood at 8.23e-05 s⁻¹ and the “Murine CTGF kon” value is 60700 M⁻¹ s⁻¹.

B4: SEQ ID NO: 10: optimized CTGF-binding hNGAL lipocalin mutein (protein)
chain: QDSTSDLIPAPPLSKVPLQQNFQDNQFQGKWYVVGLAGNAILREDKQPAKMFATIYELKEDKSYDVTSVRFEAKSCSYTIKTFVPGSQPGEFTAGNIKSAPGQTSTLVRVVSTNYNQHAMVFWKSVAGTRESFNIALYGRTKELTSELKENFIRFSKSLGLPENHIVFPVPIDQCIDG
modifications: lipocalin mutein
In the case of B4, in data set [1], the “ONSET MELTING” value was 50 °C and the TM stood at 66 °C. Further, the “human CTGF koff” value in data set [2] worked out at 2.23e-06 s⁻¹. For the same molecule, the “human CTGF kon” value in data set [3] turned out to be 67700 M⁻¹ s⁻¹. Also, in data set [4], the “Murine CTGF KD” value is “B”, the “Murine CTGF koff” value was “B” and the “Murine CTGF kon” value is reported as “B”. Moreover, in data set [5], the “Rat CTGF koff” value worked out at 4.08e-05 s⁻¹ and the “Rat CTGF kon” value stood at 88800 M⁻¹ s⁻¹.

B5: SEQ ID NO: 33: optimized CTGF-binding hNGAL lipocalin mutein (protein)
chain: QDSTSDLIPAPPLSKVPLQQNFQDNQFQGKWYVVGWAGNAKLREDKQPFKMSATIYELKEDKSYDVTEVVFEQKKCHYIIKTFVPGSQPGEFTEGNYKRRPRLWSDLVRVVSTNYNQHAMVFFKKVHQNREFFWITLYGRTKELTSELKENFIRFSKSLGLPENHIVFPVPIDQCIDG
modifications: lipocalin mutein
For the molecule B5, in data set [1], the “ONSET MELTING” value was determined as 56 °C and the TM was 72 °C. Further, the “human CTGF koff” value in data set [2] stood at 1.71e-05 s⁻¹. For the same molecule, in data set [3], the “human CTGF kon” value was 172000 M⁻¹ s⁻¹. In data set [4], the “Murine CTGF koff” value came out at 5.29e-05 s⁻¹ and the “Murine CTGF kon” value amounted to 176000 M⁻¹ s⁻¹. Further, in data set [5], the “Rat CTGF koff” value was determined as 6.3e-05 s⁻¹ and the “Rat CTGF kon” value stood at 279000 M⁻¹ s⁻¹.

B6: SEQ ID NO: 22: optimized CTGF-binding hNGAL lipocalin mutein (protein)
chain: QDSTSDLIPAPPLSKVPLQQNFQDNQFQGKWYVVGIAGNAILRVDKQPAKMFATIYELKEDKSYDVTSVRFEAKSCVYTIKTFVPGSQPGEFTAGNIKSAPGQTSTLVRVVSTNYNQHAMVFFKHVSQNREIFVITLYGRTKELTSELKENFIRFSKSLGLPENHIVFPVPIDQCIDG
modifications: lipocalin mutein
As to B6, in data set [1], the “ONSET MELTING” value was found to be 59 °C and the TM stood at 73 °C. Moreover, in data set [2], the “human CTGF koff” value came to 8.05e-06 s⁻¹. Further, the “human CTGF kon” value in data set [3] stood at 142000 M⁻¹ s⁻¹. In data set [4], the “Murine CTGF KD” value is “B”, the “Murine CTGF koff” value is given as “B” and the “Murine CTGF kon” value is “B”. In data set [5], the “Rat CTGF koff” value came to 4.01e-05 s⁻¹ and the “Rat CTGF kon” value was found to be 181000 M⁻¹ s⁻¹.

B7: SEQ ID NO: 26: optimized CTGF-binding hNGAL lipocalin mutein (protein)
chain: QDSTSDLIPAPPLSKVPLQQNFQDNQFQGKWYVVGLAGNYRLREDKDPSKMGATIYELKEDKSYDVTQVQFDDKKCLYVIETFVPGSQPGEFTLGNIKVYPTLESQLVRVVSTNYNQHAMVFFKKVYQNREVFWITLYGRTKELTSELKENFIRFSKSLGLPENHIVFPVPIDQCIDG
modifications: lipocalin mutein
With B7, in data set [1], the “ONSET MELTING” value came to 62 °C and the TM stood at 71 °C. Moreover, in data set [2], the “human CTGF koff” value came out at 3.06e-05 s⁻¹. In data set [3], the “human CTGF kon” value amounted to 23200 M⁻¹ s⁻¹. In addition, in data set [4], the “Murine CTGF koff” value was 0.000208 s⁻¹ and the “Murine CTGF kon” value amounted to 35300 M⁻¹ s⁻¹.

B8: SEQ ID NO: 27: optimized CTGF-binding hNGAL lipocalin mutein (protein)
chain: QDSTSDLIPAPPLSKVPLQQNFQDNQFQGKWYVVGLAGNYRLREDKDPSKMGATIYELKEDKSYDVTQVQFDDKKCLYVIETFVPGSQPGEFTLGAIKSYPGLTSQLVRVVSTNYNQHAMVFLKKVYGSEEYFHITLYGRTKELTSELKENFIRFSKSLGLPENHIVFPVPIDQCIDG
modifications: lipocalin mutein
As for B8, in data set [1], the “ONSET MELTING” value is 52 °C and the TM came to 64 °C. In data set [2], the “human CTGF koff” value is 2.45e-05 s⁻¹. In addition, the “human CTGF kon” value in data set [3] came to 30500 M⁻¹ s⁻¹. Also, in data set [4], the “Murine CTGF koff” value was determined as 0.000172 s⁻¹ and the “Murine CTGF kon” value came to 41400 M⁻¹ s⁻¹.
